The record followed here is patent US20250368734A1 (ANTENGENE BIOLOGICS, published 2025).

Numbering of substitutions follows the chain as printed.

The chains are these.
T1: mouse GPRC5D (mouse, UniProt Q9JIL6 1-344)
T1 construct: whole, on cells; HEK293T-mGPRC5D cells; also called mGPRC5D; murine GPRC5D
T1 sequence (looked up): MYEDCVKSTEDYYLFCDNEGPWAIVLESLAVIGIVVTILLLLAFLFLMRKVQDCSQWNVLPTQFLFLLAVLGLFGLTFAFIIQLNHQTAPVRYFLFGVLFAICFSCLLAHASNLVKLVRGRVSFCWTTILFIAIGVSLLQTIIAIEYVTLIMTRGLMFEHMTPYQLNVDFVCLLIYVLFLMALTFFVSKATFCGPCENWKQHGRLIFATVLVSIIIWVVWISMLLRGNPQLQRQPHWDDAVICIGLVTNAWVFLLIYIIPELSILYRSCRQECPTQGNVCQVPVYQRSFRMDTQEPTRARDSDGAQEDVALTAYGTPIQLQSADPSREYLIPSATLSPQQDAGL

B1: Bis-83A9B8 (bispecific antibody)
chain 1: EVQLQQSGPELVKPGASVKMSCKASGYTFSNYVIHWVKQKPGQGLEWIGYFNPYNDGSKYNEKFKGKATLTSDKSSSTAYMELSSLTSEDSAVYYCARGGVRRYFDVWGAGTTVTVSS
chain 2: GGGGSGGGGSGGGGSEVQLVESGGGLVQPGRSLRLSCAASGFTFDNYAMHWVRQAPGKGLEWVSGISWNSGSIGYADSVKGRFTISRDNAKNSLYLQMNSLRAEDTALYYCAKDSRGYGDYSRGGAYWGQGTLVTVSSEIVMTQSPATLSVSPGERATLSCRASQSVSSNLAWYQQKPGQAPRLLIYGASTRATGIPARFSGSGSGTEFTLTISSLQSEDFAVYYCQQYNNWPWTFGQGTKVEIK
chain 3: DIQMTQSPSSLSASLGERVSLTCRASQDIGDNLNWLQQEPDGTIKRLIYATFSLDSGVPKRFSGSRSGSVYSLTISRLESEDFVDYFCLHYASFPYTFGGGTKLEIK
B2: Bis-116G1G4 (bispecific antibody)
chain 1: EVQLQQSGPELVKPGASVKMSCKASGYTFTYYIMHWVKQEPGQGLQWIGYINPYNDGAYYSARFKGKATLTSDKSSSTAYMDLTSLTSEDSAVYYCARGGVRRYFDVWGAGTTVTVSS
chain 2: B1 chain 2
chain 3: DIQMTQSPSSLSASLGERVILTCRASQDIGSNLIWLQQKPDGTIKRLIYATFNLDSGVSKRFSGSRSGSDYSLTISSLDSEDFVDYYCLQYASSPYTFGGGTKLEIK
B3: Bis-26E2H6 (bispecific antibody)
chain 1: EVQLVESGGDLVKPGGSLKLSCAASGFTFSSYGMSWVRQTPDKRLEWVATISSGGSYTYYPDSVKGRFTISRDNAKNTLYLQMSSLKSEDTAMYYCARHATDYWGQGTTLTVSS
chain 2: B1 chain 2
chain 3: QIVLTQSPAIMSASPGEKVTMTCSASSSVSYMHWYQQKSGTSPKRWIYDTSKLASGVPARFSGSGSGTSYSLTISSMEAEDAATYYCQQWSSNPLTFGAGTKLELK
B4: Bis-108C4C12 (bispecific antibody)
chain 1: B1 chain 1 with S30T, N31S, P41T, S58T, K63E, S77N, S84N, E89D, Y95F
chain 2: B1 chain 2
chain 3: B1 chain 3 with D31S, S53G, V70D, R77S, F87Y, L89Q, H90Q
B5: Bis-15D6G2 (bispecific antibody)
chain 1: EVQLVESGGDLVKPGGYLRLSCAASGFTFSSHGMSWVRQTPDKRLEWVATISSGGRNTYYPDSVKGRFTISRDNAKNILYLQMSSLKSEDTAMFYCTRHSGDAMDYWGQGTSVTVSS
chain 2: B1 chain 2
chain 3: DILLTQSPAILSVSPGERVSFSCRASQSIGTNIHWYQQRTNGSPRLLIKYASESISGIPSRFSGSGSGTDFTLSINSVESEDIADYYCQQSKSWPTFGGGTKLEIK
B6: Bis-116F1G6 (bispecific antibody)
chain 1: B1 chain 1 with Q6H, S30T, N31T, I34M, F51I, S58T
chain 2: B1 chain 2
chain 3: B1 chain 3 with D31S, D41N, S53T, V70D, R77S, F87Y, H90Q
B7: Bis-98A3A8 (bispecific antibody)
chain 1: B1 chain 1 with S30T, N31Y, I34T, K38R, F51I, S58T, K59M, Y60F, L83F, Y94F
chain 2: B1 chain 2
chain 3: B2 chain 3 with I20S, I34N, F52S, N53S, S59P, S76N, D79E, S94F
B8: Bis-96C9E7 (bispecific antibody)
chain 1: B1 chain 1 with S30T, N31Y, V33I, I34L, S58N, Y60F, K63R, K65R, S84N, Y95F
chain 2: B1 chain 2
chain 3: B1 chain 3 with D31S, Y49S, V70D, R77S, D85N, F87Y, H90Q
B9: Bis-110B4H5 (bispecific antibody)
chain 1: EVQLQQSGPELVKPGASVKMSCKASGYTFTFYIMHWVKQKPGQGPEWIGYINPYNDGTKYNAKFKGKATLSSDRSSSTAYMELSSLTSEDSAVYYCARGGVRRYFDVWGAGTPVTVSS
chain 2: B1 chain 2
chain 3: B1 chain 3 with A25S, D31S, V70H, R77S, D85V, F87Y, H90Q, A92G
B10: 98A3A8 (antibody, V domains shown)
VH: B1 chain 1 with S30T, N31Y, I34T, K38R, F51I, S58T, K59M, Y60F, L83F, Y94F
VL: B2 chain 3 with I20S, I34N, F52S, N53S, S59P, S76N, D79E, S94F
notes: Mouse monoclonal antibody from hybridoma subclone
B11: 26E2H6 (antibody, V domains shown)
VH: B3 chain 1
VL: B3 chain 3
notes: as for B10
B12: 36A3G8 (antibody, V domains shown)
VH: QVQLQQSGAELARPGASVKMSCKASGYTFTTYTMHWIKQRPGQDLEWIGFINPSSGYTKYNQNFKDKATLTADKSSTTAYMQLNSLTSEDSAVYYCASPYGNIYFDVWGTGTTVTVSS
VL: DIVMTQSQKFMSTAVGDRVSITCKASQNVGTAVAWYQQKPGQSPKLLIYSASNRYTGVPDRFTGSGSGTDFTLTISNMQSEDLADYFCQQYSSYPLTFGAGTKLELK
notes: as for B10
B13: 28H9C12 (antibody, V domains shown)
VH: EVQLVESGGGLVKPGGSLKLSCAASGFTFSDYGMHWVRQAPEKGLEWVAYISSGSSTIYYADTVKGRFTISRDNAKNTLFLQMTSLRSEDTAIYYCVRRPWYFDVWGTGTTVTVSS
VL: DVLMTQTPLSLPVSLGDQASISCRSSQSIVHSNGNTYLQWYLQKPGQSPKLLIYKVSNRFSGVPDRFSGSGSGTDFTLKISRLEAEDLGVYYCFQGSHVPFTFGSGTKLEIK
notes: Mouse monoclonal antibody from hybridoma subclone; also called 281H9C12

T2 sequence (Q9NZD1 whole entry): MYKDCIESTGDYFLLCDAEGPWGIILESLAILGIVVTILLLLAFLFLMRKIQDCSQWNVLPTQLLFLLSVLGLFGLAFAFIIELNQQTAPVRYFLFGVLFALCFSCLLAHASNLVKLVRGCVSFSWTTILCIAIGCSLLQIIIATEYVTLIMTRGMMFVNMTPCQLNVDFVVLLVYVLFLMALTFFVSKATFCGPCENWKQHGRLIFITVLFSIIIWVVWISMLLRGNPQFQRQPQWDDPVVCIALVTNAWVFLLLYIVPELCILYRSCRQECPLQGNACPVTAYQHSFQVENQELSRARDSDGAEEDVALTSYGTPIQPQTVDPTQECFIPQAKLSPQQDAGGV

The first experiment addresses T2, human GPRC5D (human, UniProt Q9NZD1 1-345). The experiment is described as follows: cell-based or functional assay.
Consider B1, for which the “EC50” value was 1.9 nM and the Top killing % was 66.9%.
The corresponding values for B2 are 1.88 nM and 69.2%.
The corresponding values for B3 are 30.5 nM and 79.1%.
The corresponding values for B4 are 1.44 nM and 67.9%.
As to B5, the “EC50” value was 6.69 nM and the Top killing % stood at 45.9%.
The corresponding values for B6 are 1.66 nM and 71.8%.
The corresponding values for B7 are 2.95 nM and 64.4%.
B8: it took 2.34 nM to reach a half-maximal effect (EC50) and the Top killing % worked out at 66.2%.
The corresponding values for B9 are 3.62 nM and 61.5%.

The target of the next experiment is T1, mouse GPRC5D. Kind of experiment: FACS, HEK293T-mGPRC5D cells. An excerpt:
(§1) The subcloning plates were screened by Mirrorball assay and the subclones with good binding ability were expanded to 24-wells for confirmation tests. The specificity and cross-reactivity of these subclones were confirmed with FACS analysis. Briefly, parental HEK293T, HEK293T cells stably over-expressing human GPRC5D protein (i.e., HEK293T-hGPRC5D), HEK293T cells stably over-expressing cynomolgus monkey GPRC5D protein (i.e., HEK293T-cynoGPRC5D), HEK293T cells stably over-expressing mouse GPRC5D protein (i.e., HEK293T-mGPRC5D), and OPM2 cells were incubated with antibodies produced by each subclone, respectively. Fluorescent dye-conjugated secondary antibody was used to detect the binding of the primary antibody with the cells. Median fluorescence intensity (MFI) was measured by FACS analysis,
(§2) As a result, 21 antibodies were discovered with unique sequences showing positive binding with HEK293T-hGPRC5D and OPM2 cells. Among which, some clones could also bind with HEK293T-cynoGPRC5D and/or HEK293T-mGPRC5D. […] ATG596 was a positive human IgG1 control antibody which comprises a VH region having an amino acid sequence as set forth in SEQ ID NO: 199, and a VL region having an amino acid sequence as set forth in SEQ ID NO: 200.
Consider B10, for which the “% Positive” value was found to be 89.4% and the MFI came out at 566.

The target in the next experiment is T3, cynomolgus monkey GPRC5D (cynomolgus monkey).
T3 construct: whole, on cells; HEK293T-cynoGPRC5D cells; also called cynoGPRC5D
The experiment is described as follows: FACS, HEK293T-cynoGPRC5D cells.
From the text: as §1, §2
As for B10, the “% Positive” value turned out to be 95.3% and the MFI is 2070.

A further experiment addresses T2, human GPRC5D. The experiment is described as follows: FACS, HEK293T-hGPRC5D cells.
From the text: as §1, §2
Turning to B10, the “% Positive” value was 93.2% and the MFI was determined as 2070.
On to B11, for which the “% Positive” value was determined as 99.8% and the MFI was determined as 27200.
In the case of B12, the “% Positive” value is 99.3% and the MFI came out at 31800.
The corresponding values for B13 are 99.6% and 25100.

The next experiment concerns the target T1, mouse GPRC5D. The experiment is described as follows: FACS, HEK293T-mGPRC5D cells. This is another data set of the same source.
From the text: as §1, §2
As to B11, the “% Positive” value was 68.4% and the MFI turned out to be 370.
With B13, the “% Positive” value came to 1.6% and the MFI amounted to 121.

The target in another experiment is T3, cynomolgus monkey GPRC5D. The experiment is described as follows: FACS, HEK293T-cynoGPRC5D cells. This is another data set of the same source.
From the text: as §1, §2
Turning to B11, the “% Positive” value was 1% and the MFI is 116.
In the case of B12, the “% Positive” value was 96.6% and the MFI was found to be 3110.
The corresponding values for B13 are 99.8% and 18000.

The target of the next experiment is T2, human GPRC5D. Kind of experiment: FACS, OPM-2 cells.
From the text: as §1, §2
Take B10: the “% Positive” value turned out to be 98.7% and the MFI was determined as 962.
The corresponding values for B11 are 97.9% and 1150.
For B12, the “% Positive” value stood at 96.3% and the MFI came out at 791.
The corresponding values for B13 are 97.9% and 1120.
